Measurements from PMC6910828.

Target: Cy3-labelled, prenylated Cdc42, wild type, GDP-bound
Assay: membrane extraction (wash-off) assay on supported lipid bilayers, TIRF; as above, GDI titrated between 0 and 20 µM; Koff of the GTPase from the membrane plotted against GDI concentration and fitted with a hyperbolic function (Kd, Vmax); apparent affinities

Substance: Xenopus laevis RhoGDI E158/9Q (natural protein)
- fold reduction of the extraction of Cdc42:GDP against WT GDI: < 2 fold
